# Patent US20120277161A1, “INHIBITION OF MULTIPLE CELL ACTIVATION PATHWAYS” (INTER-K PTY LIMITED, priority 2009, published 2012)
# What was measured:
# c-SRC (h) = c-SRC (h) (Homo sapiens, UniProt P12931); assay: c-Src kinase activity assay (cell-free, 33P-ATP); format: biochemical; settings: peptide 50 μM, relative to control
# Description: In a final reaction volume of 25 μL, c-SRC (h) (5-10 mU) is incubated with 8 mM MOPS pH 7.0, 0.2 mM EDTA, 250 μM KVEKIGEGTYGVVYK (SEQ ID No. 19) (Cdc2 peptide), 10 mM MgAcetate and [γ-33P-ATP] (specific activity approx. 500 cpm/pmol, concentration as required). The reaction is initiated by the addition of the MgATP mix. After incubation for 40 minutes at room temperature, the reaction is stopped by the addition of 5 μL of a 3% phosphoric acid solution. 10 μL of the reaction is then spotted onto a P30 filtermat and washed three times for 5 minutes in 75 mM phosphoric acid and once in methanol prior to drying and scintillation counting.
# [1] = test system: cell adhesion mediated ERK activation in HT29 human colon cancer cells; assay: ERK cell adhesion assay (fibronectin), phospho-ERK1/2 ELISA; format: cell-based
# Description: Experimental wells were coated with 100 μL of fibronectin (1-10 μg/mL, Sigma-Aldrich) or 100 μL of 1% BSA (negative control, Sigma-Aldrich). Plates were then incubated at 37° C. for 1 hour before being washed with 100 μL PBS. 100 μL of 1% BSA was then added to each well for 30 minutes to block non-specific binding (37°). HT29 human colon cancer cells were harvested using 0.5% trypsin-EDTA and 50,000 cells were plated into each empty well in 100 μL of serum free media (SFM; DMEM supplemented with 1% (v/v) L-glutamine and 2% (v/v) 1M HEPES solution). 100 μL of SFM with or without PP2 (final concentration 5 μM, specific c-Src inhibitor, Sigma-Aldrich), was then added to each well. Plates were centrifuged at 200 rpm for 5 minutes and then incubated at 37° C. for one hour. Phospho-ERK1/2 levels in the cell groups was evaluated by ELISA (Active Motif assay kit, Australian Biosearch) essentially as described in Example 7.1.
# A study was undertaken to evaluate the effect of the PI3K inhibitor Wortmannin (0.25 μM final concentration) on cell adhesion mediated ERK activation in HT29 human colon cancer cells. Phospho-ERK1/2 levels were measured as an indicator of ERK activation substantially as described in Example 7.1. Increasing levels of phospho-ERK1/2 in HT29 cells correlated with increasing levels of fibronectin in the absence of serum stimulation of the HT29 cells.
# human Lyn = human Lyn (Homo sapiens, UniProt P07948); assay: Lyn kinase activity assay; format: biochemical; settings: peptide 50 μM
# Description: In a final reaction volume of 25 μl, human Lyn is incubated with the RSKAKNPLYR peptide (SEQ ID No: 6) in 50 mM Tris buffer pH 7.5, 0.1 mM EGTA, 0.1 mM Na3VO4, 1% mercaptoethanol, 0.1 mg/ml poly(Glu,Tyr) 4:1, 10 mM Mg acetate and [γ-33P-ATP] (specific activity approx. 500 cpm/pmol). The reaction was initiated by the addition of the MgATP mix, incubated for 40 minutes at room temperature prior to being stopped and kinase activity assessed by scintillation counting as per the protocol described for c-Src described in Example 1.1.
# human Yes = human Yes (Homo sapiens, UniProt P07947); assay: Yes kinase activity assay; format: biochemical; settings: peptide 50 μM
# Description: In a final reaction volume of 25 μl, human Yes is incubated with the RSKAKNPLYR peptide (SEQ ID No: 6) in 8 mM MOPS buffer pH 7.0, 0.2 mM EDTA, 0.1 mg/ml poly(Glu,Tyr) 4:1, 10 mM Mg acetate and [γ-33P-ATP] (specific activity approx. 500 cpm/pmol). The reaction is initiated by the addition of the MgATP mix, incubated for 40 minutes at room temperature prior to being stopped and kinase activity assessed by scintillation counting again as per the protocol described for c-Src in Example 1.1.
# MEK1 (h) = MEK1 (h) (Homo sapiens, UniProt Q02750); assay: MEK1 kinase activity assay; format: biochemical; settings: 50 μM
# Description: The reaction is initiated by the addition of the MgATP. After incubation for 40 minutes at room temperature, 5 μL of this incubation mix is used to initiate an ERK2 (m) assay.
# [2] = test system: ADDP human ovarian carcinoma cell line; assay: Cell proliferation (MTT) assay, ADDP cells; format: cell-based
# Description: (§1) 6.1 Cell Proliferation (MTT) Assay Single cell suspensions of viable trypsinised cells were seeded into 96-well tissue culture plates at a density of 2×10^3 cells per well in a volume of 100 μl of a suitable culture media supplemented with heat inactivated foetal calf serum (FCS) (e.g., Dulbecco's Modified Eagles Medium (DMEM), with 10% v/v FCS, 1% L-glutamine, 2% (v/v) Hepes, and antibiotics). A set of triplicate wells was prepared for each concentration of the peptide dendrimer being tested. Additional sample wells containing untreated cells or media alone were set up in each treatment plate and processed in parallel as reference controls. A zero-time plate of untreated cells and media-alone wells was simultaneously prepared and an MTT assay carried out on this plate at the time of addition of the kinase inhibitor (i.e., polypeptide or dendrimer) to treatment plates. All plates were cultured for 24 hours before addition of the test dendrimer.
# To prepare the MTT solution 100 mg of MTT (3-(4,5-dimethylthiazolyl-2)-2,5-diphenyltetrazolium bromide) (Cat #. M-128, Sigma, St Louis Mo.), is mixed with 20 ml of PBS at pH 7.4. The resulting solution is filter sterilized (0.2 μM syringe filter) and stored at 4° C. protected from light until use. MTT substrate is cleaved in growing cells to yield a water insoluble salt. After solubilisation of the salt crystals, a coloured product is produced the measurement of which allows quantitation of the proliferative activity of the cultured cells.
# Appropriate concentrations of the kinase inhibitor were prepared by dilution of freshly prepared sterile 1 mM stock solutions into cell culture media to give a final well volume of 200 μl containing 10% v/v FCS. The zero-plate was processed by addition of MTT at this time. Cell culture was continued for a further 24 or 48 hours before addition of 20 μl of MTT in PBS (5 mg/ml, 0.2 um filter sterilised). The MTT cell proliferation assay measures cell proliferation rate and, in instances where cell viability is compromised, the assay indicates a comparative reduction in cell viability. After a 3 hour incubation in the presence of MTT (5% CO2 in air at 37° C.), plates were centrifuged at 450 g for 5 minutes, supernatant was removed by gentle suction and precipitated tetrazolium salt resuspended into 150 μl DMSO:glycine (0.1M glycine, 0.1M NaCl pH 10.5) (6:1 v/v) solution. Plates were gently vortexed to complete solubilisation of crystalline material and absorbance was read at 550 nm using a microplate reader. Sample data were processed to determine the comparative growth of treated samples relative to untreated controls.
# [3] = test system: A2780 ovarian cancer cell line; assay: Cell proliferation (MTT) assay, A2780 cells; format: cell-based, human; settings: drug alone; FIG. 6
# Description: as §1, with “A zero-time plate of untreated cells and media-alone wells was simultaneously prepared and an MTT assay carried out on this plate at the time of addition of the kinase inhibitor (i.e., polypeptide or dendrimer) to treatment plates. All plates were cultured for 24 hours before addition of the test dendrimer.” left out
# To prepare the MTT solution 100 mg of MTT (3-(4,5-dimethylthiazolyl-2)-2,5-diphenyltetrazolium bromide) (Cat #. M-128, Sigma, St Louis Mo.), is mixed with 20 ml of PBS at pH 7.4. […] After solubilisation of the salt crystals, a coloured product is produced the measurement of which allows quantitation of the proliferative activity of the cultured cells.
# Appropriate concentrations of the kinase inhibitor were prepared by dilution of freshly prepared sterile 1 mM stock solutions into cell culture media to give a final well volume of 200 μl containing 10% v/v FCS. […] Plates were gently vortexed to complete solubilisation of crystalline material and absorbance was read at 550 nm using a microplate reader. […]
# human Yes, sequence (P07947 whole entry): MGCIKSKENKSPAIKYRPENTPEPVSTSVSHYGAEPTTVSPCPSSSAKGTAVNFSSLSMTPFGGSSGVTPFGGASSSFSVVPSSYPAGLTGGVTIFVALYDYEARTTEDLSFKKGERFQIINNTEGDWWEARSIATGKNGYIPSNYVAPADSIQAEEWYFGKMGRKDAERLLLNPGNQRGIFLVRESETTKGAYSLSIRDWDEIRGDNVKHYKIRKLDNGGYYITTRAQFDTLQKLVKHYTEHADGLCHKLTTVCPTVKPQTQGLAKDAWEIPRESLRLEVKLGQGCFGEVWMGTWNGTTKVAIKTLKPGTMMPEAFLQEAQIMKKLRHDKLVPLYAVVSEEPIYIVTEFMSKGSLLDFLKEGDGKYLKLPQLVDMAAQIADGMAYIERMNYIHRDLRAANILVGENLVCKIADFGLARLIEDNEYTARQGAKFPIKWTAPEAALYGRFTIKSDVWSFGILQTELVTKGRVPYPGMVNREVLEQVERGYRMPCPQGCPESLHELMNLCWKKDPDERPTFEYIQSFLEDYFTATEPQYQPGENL
# human Lyn, sequence (P07948 whole entry): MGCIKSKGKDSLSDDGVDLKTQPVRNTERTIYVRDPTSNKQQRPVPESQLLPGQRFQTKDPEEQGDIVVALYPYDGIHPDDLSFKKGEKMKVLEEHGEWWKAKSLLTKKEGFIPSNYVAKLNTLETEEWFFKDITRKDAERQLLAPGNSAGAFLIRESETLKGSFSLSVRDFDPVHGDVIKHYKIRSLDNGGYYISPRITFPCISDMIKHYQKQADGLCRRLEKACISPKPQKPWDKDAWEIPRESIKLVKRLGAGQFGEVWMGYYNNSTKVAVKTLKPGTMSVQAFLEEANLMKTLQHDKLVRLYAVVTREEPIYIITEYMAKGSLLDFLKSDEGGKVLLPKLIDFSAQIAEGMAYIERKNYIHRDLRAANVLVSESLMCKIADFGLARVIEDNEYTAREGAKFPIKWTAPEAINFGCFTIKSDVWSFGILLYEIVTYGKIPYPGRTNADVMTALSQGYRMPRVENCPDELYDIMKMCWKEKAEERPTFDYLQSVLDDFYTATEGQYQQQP
compound,measurement,setting,value
NPLYR [Peptide 8],"% Inhibition of control, c-Src tyrosine kinase activity",c-SRC (h),negligible or no c-Src inhibitory activity
CC(C)(C)n1nc(-c2ccc(Cl)cc2)c2c(N)ncnc21 [PP2],"phospho-ERK levels, HT29 cells on fibronectin","[1]; 5 μM, no serum stimulation, results not shown",markedly reduced
RSKAKNPLYR [Peptide 1],"% Inhibition of control, c-Src tyrosine kinase activity",c-SRC (h),approx. 57%
same,inhibition of Lyn activity,human Lyn,only relatively low level inhibition
same,inhibition of Yes activity,human Yes,only relatively low level inhibition
same,inhibition of MEK1,MEK1 (h),negligible inhibition
same,"effect in combination with cisplatin, ADDP cells","[2]; 20 μM peptide, 72 hour culture, data not shown",synergistic effect
COC[C@H]1OC(=O)c2coc3c2[C@@]1(C)C1=C(C3=O)[C@@H]2CCC(=O)[C@@]2(C)C[C@H]1OC(C)=O [Wortmannin],reduction of cell adhesion mediated ERK activation,"[1]; 0.25 μM, HT29 cells",about 55%
RSKAK [Peptide 6],"% Inhibition of control, c-Src tyrosine kinase activity",c-SRC (h),negligible or no c-Src inhibitory activity
"N.N.[Cl][Pt][Cl] [cisplatin, cis-diamminedichloroplatinum (II), reference compound]",inhibition of growth of ADDP cell line,"[2]; drug alone, FIG. 6",substantially less inhibition of growth
same,inhibition of growth of A2780 cell line,[3],highly susceptible
WQTGT [Peptide 7],"% Inhibition of control, c-Src tyrosine kinase activity",c-SRC (h),No inhibitory activity
